Assay results reported in patent US20250262210A1 (TRUSTEES OF COLUMBIA UNIVERSITY IN THE CITY OF NEW YORK, published 2025).

Tests used:
HERC2 = HERC2 (human, UniProt O95714 1-4834); assay: IP/MS, LZTR1 wild type-FLAG, U87
Procedure, shortened: (§1)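 Read-out: spectral counts from LC-MS/MS (Orbitrap Fusion) after MaxQuant identification. Variable modifications were Met oxidation, protein N-terminal acetylation and N/Q deamidation.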

USP47 = biological target: T1, USP47 (human, UniProt Q96K76 1-1375, limits assumed); assay: IP/MS, LZTR1 wild type-FLAG, U87
T1 sequence (looked up): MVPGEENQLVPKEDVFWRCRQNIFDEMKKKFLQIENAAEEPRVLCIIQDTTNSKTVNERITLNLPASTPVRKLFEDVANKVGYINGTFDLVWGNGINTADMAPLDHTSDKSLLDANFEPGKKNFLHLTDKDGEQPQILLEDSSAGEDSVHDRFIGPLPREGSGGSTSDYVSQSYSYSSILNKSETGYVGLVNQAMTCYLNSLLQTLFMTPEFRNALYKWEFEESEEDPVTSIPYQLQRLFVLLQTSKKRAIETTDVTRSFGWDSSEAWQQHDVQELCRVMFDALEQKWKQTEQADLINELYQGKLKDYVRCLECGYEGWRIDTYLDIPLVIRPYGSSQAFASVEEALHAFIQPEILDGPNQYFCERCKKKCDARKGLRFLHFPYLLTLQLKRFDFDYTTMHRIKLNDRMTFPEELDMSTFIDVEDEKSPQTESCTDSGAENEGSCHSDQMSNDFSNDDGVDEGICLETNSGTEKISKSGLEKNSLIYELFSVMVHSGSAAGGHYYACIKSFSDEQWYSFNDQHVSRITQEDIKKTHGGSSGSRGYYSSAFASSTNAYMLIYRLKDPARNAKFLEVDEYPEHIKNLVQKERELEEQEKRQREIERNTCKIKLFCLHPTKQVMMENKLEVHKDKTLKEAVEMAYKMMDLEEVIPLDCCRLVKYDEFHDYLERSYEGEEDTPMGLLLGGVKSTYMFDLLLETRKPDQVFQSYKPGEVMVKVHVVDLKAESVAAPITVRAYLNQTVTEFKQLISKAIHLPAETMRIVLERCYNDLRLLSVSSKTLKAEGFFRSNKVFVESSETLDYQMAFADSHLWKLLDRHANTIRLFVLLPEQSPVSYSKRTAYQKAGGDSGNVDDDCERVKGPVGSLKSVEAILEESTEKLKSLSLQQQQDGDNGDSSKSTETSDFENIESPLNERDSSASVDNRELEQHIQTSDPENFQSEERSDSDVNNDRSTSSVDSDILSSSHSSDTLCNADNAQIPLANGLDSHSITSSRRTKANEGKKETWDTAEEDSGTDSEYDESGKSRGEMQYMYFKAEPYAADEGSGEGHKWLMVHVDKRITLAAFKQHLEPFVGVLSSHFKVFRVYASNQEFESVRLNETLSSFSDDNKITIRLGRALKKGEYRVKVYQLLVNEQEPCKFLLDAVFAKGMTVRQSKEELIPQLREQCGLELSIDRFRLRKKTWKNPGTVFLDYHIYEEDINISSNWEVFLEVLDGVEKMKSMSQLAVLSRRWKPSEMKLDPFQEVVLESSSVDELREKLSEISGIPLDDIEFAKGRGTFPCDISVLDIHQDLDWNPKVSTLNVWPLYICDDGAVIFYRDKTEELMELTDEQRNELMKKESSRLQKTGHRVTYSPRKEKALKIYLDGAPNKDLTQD
Procedure, shortened: as §1

HERC2, sequence (O95714 whole entry, the tested form may be a part): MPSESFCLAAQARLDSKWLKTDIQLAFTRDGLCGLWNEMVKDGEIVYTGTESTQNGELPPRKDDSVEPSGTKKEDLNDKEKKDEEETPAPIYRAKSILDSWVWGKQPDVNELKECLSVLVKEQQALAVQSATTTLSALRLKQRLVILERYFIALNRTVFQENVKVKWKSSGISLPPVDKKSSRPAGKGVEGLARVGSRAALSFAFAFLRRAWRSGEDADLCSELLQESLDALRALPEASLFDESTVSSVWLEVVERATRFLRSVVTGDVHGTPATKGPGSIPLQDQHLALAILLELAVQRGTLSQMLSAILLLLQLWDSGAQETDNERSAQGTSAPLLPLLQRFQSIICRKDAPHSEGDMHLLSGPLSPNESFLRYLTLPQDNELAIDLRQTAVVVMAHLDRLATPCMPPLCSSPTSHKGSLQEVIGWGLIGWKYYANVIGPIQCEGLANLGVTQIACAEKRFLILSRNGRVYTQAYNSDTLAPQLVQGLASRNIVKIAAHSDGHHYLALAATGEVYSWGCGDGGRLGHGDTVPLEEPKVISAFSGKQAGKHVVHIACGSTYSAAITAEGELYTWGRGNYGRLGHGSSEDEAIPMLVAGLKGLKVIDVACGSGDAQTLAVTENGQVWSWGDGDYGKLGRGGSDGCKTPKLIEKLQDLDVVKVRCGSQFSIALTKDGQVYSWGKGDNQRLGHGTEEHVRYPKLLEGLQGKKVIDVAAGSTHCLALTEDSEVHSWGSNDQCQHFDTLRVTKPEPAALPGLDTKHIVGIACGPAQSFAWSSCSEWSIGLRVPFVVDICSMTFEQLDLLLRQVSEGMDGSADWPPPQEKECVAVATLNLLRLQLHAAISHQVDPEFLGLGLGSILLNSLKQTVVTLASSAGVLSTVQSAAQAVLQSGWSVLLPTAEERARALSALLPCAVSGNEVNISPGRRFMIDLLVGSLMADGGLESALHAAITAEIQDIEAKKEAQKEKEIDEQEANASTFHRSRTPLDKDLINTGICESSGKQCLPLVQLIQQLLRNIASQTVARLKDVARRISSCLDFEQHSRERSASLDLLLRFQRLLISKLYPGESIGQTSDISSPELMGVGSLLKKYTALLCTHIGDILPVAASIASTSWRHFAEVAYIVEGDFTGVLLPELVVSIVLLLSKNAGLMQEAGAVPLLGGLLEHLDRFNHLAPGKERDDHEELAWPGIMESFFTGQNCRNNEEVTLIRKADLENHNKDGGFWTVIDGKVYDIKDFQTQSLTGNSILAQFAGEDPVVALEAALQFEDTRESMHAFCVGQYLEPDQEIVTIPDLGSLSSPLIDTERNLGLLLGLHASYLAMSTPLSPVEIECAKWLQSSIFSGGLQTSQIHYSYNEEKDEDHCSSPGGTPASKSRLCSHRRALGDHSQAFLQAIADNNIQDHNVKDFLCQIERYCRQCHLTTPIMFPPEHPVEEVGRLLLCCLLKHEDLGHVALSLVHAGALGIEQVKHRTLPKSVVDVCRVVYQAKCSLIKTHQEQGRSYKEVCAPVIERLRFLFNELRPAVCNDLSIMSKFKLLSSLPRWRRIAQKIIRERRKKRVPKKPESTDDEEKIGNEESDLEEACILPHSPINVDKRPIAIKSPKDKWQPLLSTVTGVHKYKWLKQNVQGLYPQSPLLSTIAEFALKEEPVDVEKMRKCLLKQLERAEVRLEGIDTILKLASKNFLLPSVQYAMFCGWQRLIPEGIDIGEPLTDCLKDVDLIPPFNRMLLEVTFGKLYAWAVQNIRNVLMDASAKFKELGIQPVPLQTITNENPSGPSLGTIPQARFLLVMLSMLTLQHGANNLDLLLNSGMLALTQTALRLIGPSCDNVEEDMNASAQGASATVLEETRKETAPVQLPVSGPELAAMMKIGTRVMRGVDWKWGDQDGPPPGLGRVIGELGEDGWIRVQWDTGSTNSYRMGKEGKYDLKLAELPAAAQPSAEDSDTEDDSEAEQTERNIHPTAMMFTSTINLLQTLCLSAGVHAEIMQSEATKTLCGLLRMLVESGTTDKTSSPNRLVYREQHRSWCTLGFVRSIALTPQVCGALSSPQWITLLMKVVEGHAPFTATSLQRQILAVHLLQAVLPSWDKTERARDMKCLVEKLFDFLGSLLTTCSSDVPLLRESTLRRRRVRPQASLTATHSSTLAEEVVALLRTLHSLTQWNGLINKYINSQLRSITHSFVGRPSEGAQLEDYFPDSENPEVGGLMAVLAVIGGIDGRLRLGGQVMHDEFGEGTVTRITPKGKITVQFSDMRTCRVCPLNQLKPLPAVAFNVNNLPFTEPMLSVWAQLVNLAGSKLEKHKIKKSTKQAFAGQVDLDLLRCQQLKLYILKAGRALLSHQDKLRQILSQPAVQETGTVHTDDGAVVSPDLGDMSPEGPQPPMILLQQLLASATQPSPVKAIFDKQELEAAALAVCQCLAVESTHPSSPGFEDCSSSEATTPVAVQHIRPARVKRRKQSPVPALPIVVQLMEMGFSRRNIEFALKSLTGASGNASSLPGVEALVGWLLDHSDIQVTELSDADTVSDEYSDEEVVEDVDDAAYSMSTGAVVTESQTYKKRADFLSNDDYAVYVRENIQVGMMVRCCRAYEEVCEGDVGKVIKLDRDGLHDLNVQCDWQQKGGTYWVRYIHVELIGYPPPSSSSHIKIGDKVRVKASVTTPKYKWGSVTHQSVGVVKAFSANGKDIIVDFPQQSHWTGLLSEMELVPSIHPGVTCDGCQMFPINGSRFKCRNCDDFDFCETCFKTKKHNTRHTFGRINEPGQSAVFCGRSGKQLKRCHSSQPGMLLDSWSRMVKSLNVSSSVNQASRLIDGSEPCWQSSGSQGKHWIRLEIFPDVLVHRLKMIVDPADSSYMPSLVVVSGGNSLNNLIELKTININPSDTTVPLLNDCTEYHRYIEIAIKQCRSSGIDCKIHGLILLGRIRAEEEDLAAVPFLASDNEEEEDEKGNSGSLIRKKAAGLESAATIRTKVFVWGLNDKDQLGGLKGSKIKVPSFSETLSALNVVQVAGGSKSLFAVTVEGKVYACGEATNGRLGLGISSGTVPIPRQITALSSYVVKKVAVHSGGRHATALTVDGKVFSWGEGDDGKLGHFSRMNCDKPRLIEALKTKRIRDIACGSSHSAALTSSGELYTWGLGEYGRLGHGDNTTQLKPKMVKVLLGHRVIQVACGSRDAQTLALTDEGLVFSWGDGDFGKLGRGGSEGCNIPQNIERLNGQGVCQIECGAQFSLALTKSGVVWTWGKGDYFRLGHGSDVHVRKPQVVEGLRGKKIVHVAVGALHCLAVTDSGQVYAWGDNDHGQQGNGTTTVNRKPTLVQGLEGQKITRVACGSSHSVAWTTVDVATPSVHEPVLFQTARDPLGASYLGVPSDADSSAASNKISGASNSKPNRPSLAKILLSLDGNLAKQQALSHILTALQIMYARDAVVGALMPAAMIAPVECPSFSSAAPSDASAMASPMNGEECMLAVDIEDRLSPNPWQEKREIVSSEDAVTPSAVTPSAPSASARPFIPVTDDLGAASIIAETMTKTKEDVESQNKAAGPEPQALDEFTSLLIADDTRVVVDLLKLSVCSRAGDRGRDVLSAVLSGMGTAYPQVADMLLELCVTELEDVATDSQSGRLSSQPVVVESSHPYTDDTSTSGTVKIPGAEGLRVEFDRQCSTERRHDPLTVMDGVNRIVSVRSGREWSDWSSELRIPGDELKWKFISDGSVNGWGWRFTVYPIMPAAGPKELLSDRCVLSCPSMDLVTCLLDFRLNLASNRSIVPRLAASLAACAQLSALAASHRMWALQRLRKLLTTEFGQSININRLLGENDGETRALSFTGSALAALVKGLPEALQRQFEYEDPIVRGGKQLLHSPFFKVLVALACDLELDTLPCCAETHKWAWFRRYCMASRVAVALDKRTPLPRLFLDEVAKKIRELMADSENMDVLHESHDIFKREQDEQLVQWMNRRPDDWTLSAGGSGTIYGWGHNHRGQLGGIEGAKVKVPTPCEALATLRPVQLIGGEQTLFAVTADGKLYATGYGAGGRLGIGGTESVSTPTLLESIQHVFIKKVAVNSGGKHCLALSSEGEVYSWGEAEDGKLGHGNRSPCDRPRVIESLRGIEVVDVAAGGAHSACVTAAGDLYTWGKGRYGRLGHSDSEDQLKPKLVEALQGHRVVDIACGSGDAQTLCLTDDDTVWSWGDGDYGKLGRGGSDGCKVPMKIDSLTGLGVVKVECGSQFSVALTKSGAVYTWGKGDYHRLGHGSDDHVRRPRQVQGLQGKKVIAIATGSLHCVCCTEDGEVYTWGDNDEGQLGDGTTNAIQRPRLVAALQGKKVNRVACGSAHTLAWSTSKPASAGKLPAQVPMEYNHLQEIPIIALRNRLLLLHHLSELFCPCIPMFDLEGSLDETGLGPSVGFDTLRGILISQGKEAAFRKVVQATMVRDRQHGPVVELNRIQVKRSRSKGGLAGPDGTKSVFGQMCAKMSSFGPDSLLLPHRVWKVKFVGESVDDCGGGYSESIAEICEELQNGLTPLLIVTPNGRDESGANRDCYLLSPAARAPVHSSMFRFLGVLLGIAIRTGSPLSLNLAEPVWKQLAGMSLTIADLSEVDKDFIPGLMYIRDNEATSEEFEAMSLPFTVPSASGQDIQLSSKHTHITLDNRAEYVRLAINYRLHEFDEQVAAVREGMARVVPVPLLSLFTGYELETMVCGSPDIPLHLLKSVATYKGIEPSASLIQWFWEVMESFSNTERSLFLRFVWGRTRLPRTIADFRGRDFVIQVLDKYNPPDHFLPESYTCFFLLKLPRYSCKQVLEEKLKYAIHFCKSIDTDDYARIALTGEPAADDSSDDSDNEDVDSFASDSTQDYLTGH

binding result (HERC2): binds
binding result (USP47): binds
B1: LZTR1-FLAG (other, human, UniProt Q8N653 1-840, looked up)
chain: MAGPGSTGGQIGAAALAGGARSKVAPSVDFDHSCSDSVEYLTLNFGPFETVHRWRRLPPCDEFVGARRSKHTVVAYKDAIYVFGGDNGKTMLNDLLRFDVKDCSWCRAFTTGTPPAPRYHHSAVVYGSSMFVFGGYTGDIYSNSNLKNKNDLFEYKFATGQWTEWKIEGRLPVARSAHGATVYSDKLWIFAGYDGNARLNDMWTIGLQDRELTCWEEVAQSGEIPPSCCNFPVAVCRDKMFVFSGQSGAKITNNLFQFEFKDKTWTRIPTEHLLRGSPPPPQRRYGHTMVAFDRHLYVFGGAADNTLPNELHCYDVDFQTWEVVQPSSDSEVGGAEVPERACASEEVPTLTYEERVGFKKSRDVFGLDFGTTSAKQPTQPASELPSGRLFHAAAVISDAMYIFGGTVDNNIRSGEMYRFQFSCYPKCTLHEDYGRLWESRQFCDVEFVLGEKEECVQGHVAIVTARSRWLRRKITQARERLAQKLEQEAAPVPREAPGVAAGGARPPLLHVAIREAEARPFEVLMQFLYTDKIKYPRKGHVEDVLLIMDVYKLALSFQLCRLEQLCRQYIEASVDLQNVLVVCESAARLQLSQLKEHCLNFVVKESHFNQVIMMKEFERLSSPLIVEIVRRKQQPPPRTPLDQPVDIGTSLIQDMKAYLEGAGAEFCDITLLLDGHPRPAHKAILAARSSYFEAMFRSFMPEDGQVNISIGEMVPSRQAFESMLRYIYYGEVNMPPEDSLYLFAAPYYYGFYNNRLQAYCKQNLEMNVTVQNVLQILEAADKTQALDMKRHCLHIIVHQFTKVSKLPTLRSLSQQLLLDIIDSLASHISDKQCAELGADI
notes: Expressed in HEK 293T, HeLa or U87 cells; used as cell lysate; also called LZTR1 wild type-FLAG; LZTR1 WT; not shown: FLAG tag at the C-terminus
